Measurements reported in paper PMC9268357 (Science (New York, N.y.), 2021).

Legend:
[1] = biological target: prefusion-stabilized OC43 S ectodomain trimer (Human coronavirus OC43, isolate not …, UniProt P36334, stabilised); assay: cell-based or functional assay
[2] = biological target: SARS-CoV-2 or SARS-CoV stem helix peptide (SARS-CoV-2; region stated to be …, biotin); assay: BLI; conditions: both partners purified
[3] = biological target: T1, prefusion-stabilized HKU1 S ectodomain trimer (Human coronavirus HKU1, isolate not …, UniProt Q5MQD0, stabilised); assay: ELISA; conditions: both partners purified
[4] = biological target: T1, prefusion-stabilized HKU1 S ectodomain …; assay: SPR; S2P6 Fab fragment and S glycoproteins (fig. S1, G and H); conditions: both partners purified

B1: S2P6 monoclonal antibody (antibody, V domains shown)
VH: EVQLVQSGAEVKKPGASVKVSCKASGYTFTSQYMHWVRQAPGQGLEWIGIINPSGVHTSYAQKFQGRVTLTRDTSTSTLYMELSSLRSEDTAVYYCARGSPKGAFDYWGQGTLVTVSS
VL: not shown
notes: also called S2P6 mAb; S2P6 IgG; copies: 2 + 2
neutralization of VSV pseudotyped with OC43 S, IC50 [1]: 1.3 µg/mL | binding result [2]: binds | binding result [3]: binds

B2: S2P6 Fab fragment (Fab, V domains shown)
VH: EVQLVQSGAEVKKPGASVKVSCKASGYTFTSQYMHWVRQAPGQGLEWIGIINPSGVHTSYAQKFQGRVTLTRDTSTSTLYMELSSLRSEDTAVYYCARGSPKGAFDYWGQGTLVTVSS
VL: not shown
Kd [4]: ~120 nM
